In patent publication US20220204580A1 (AstraZeneca / MedImmune, published 2022):
Numbered stars: 1 amine (or outer) side, 2 acyl side, 3 side chain; on linkers, the order of the positions; unused ones are H or OH. Bridge positions count the residues as written; N and C are the ends. Square brackets hold non-standard residues; d marks the D form. Side chains are listed from the residue outwards. Ends that are not written are not given here. * marks the point of attachment. C20 diacid = O=C(O)CCCCCCCCCCCCCCCCCCC(=O)*; C18 diacid = O=C(O)CCCCCCCCCCCCCCCCC(=O)*; γGlu = O=C(O)[C@H](CCC(=O)[*:2])N[*:1]; αMeF = C[C@](N)(Cc1ccccc1)C(=O)O; Dab = NCC[C@H](N)C(=O)O; AEEA = NCCOCCOCC(=O)O; Aib = CC(C)(N)C(=O)O

T1: human amylin receptor (calcitonin receptor co-expressed with receptor activity modifying protein, RAMP3) (human, UniProt P30988 25-474; O60896 24-148)
T1 sequence (looked up) 1: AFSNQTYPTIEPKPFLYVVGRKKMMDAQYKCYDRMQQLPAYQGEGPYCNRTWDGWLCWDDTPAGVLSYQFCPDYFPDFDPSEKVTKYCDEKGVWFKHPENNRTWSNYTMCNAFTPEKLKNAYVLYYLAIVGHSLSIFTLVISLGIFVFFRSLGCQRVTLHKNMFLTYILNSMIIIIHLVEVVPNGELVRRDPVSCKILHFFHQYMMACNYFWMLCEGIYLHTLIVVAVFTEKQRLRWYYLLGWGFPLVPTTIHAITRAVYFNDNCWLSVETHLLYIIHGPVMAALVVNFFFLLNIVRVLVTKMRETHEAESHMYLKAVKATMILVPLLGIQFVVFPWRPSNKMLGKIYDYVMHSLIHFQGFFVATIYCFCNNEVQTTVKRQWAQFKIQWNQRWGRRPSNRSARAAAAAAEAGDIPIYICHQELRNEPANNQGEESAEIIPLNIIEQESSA
T1 sequence (looked up) 2: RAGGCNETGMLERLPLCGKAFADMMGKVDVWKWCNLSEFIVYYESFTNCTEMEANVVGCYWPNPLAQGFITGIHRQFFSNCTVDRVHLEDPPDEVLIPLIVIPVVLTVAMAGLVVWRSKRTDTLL

T2: human calcitonin receptor (human, UniProt P30988 25-474)
T2 sequence (looked up): T1 sequence (looked up) 1

T3: rat amylin receptor (calcitonin receptor co-expressed with receptor activity modifying protein, RAMP3) (rat, UniProt P32214 25-516; Q9JJ73 23-147)
T3 sequence (looked up) 1: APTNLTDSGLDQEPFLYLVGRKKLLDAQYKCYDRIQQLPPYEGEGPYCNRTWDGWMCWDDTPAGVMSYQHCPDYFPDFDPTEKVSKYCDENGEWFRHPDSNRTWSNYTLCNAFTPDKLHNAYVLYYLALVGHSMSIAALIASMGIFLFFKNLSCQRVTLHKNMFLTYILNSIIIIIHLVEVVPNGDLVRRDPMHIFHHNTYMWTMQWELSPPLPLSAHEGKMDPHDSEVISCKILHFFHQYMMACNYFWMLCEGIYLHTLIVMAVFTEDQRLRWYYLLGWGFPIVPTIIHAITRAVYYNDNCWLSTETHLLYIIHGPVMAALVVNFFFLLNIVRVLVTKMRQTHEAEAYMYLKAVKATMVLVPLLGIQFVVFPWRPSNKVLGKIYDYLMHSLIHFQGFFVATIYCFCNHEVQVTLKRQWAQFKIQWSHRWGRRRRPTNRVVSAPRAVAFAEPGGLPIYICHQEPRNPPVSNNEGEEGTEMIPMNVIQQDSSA
T3 sequence (looked up) 2: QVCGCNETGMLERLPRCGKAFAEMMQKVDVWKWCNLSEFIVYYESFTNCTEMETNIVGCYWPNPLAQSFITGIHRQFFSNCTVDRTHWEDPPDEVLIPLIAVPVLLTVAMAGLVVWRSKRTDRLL

T4: rat calcitonin receptor (rat, UniProt P32214 25-516)
T4 sequence (looked up): T3 sequence (looked up) 1

B1: Peptide 113 (SEQ ID NO: 113) (peptide)
peptide: {C20 diacid-γGlu-AEEA-AEEA}-KCNTATCATQRLANFLVHSSNNFGPILPPTNVGSNTY-NH2
modifications: disulfide 2-7
B2: Peptide 112 (SEQ ID NO: 112) (peptide)
peptide: {C20 diacid-γGlu}-KCNTATCATQRLANFLVHSSNNFGPILPPTNVGSNTY-NH2
modifications: disulfide 2-7
B3: Peptide 10 (SEQ ID NO: 10) (peptide)
peptide: {C18 diacid-γGlu}-CNTATCATQRLAEFLRHSSNN[αMeF]GPILPPTNVGSNTY-NH2
modifications: disulfide 1-6; numbers in words are those of the source; also: K1 deleted
B4: Peptide 9 (SEQ ID NO: 9) (peptide)
peptide: K([γGlu-γGlu-C18 diacid])CNTATCATQRLANFLVHSS[Aib]NFPAILSPTNVGSNTY-NH2
modifications: disulfide 2-7; N-terminus assumed
SMILES: CC[C@H](C)[C@H](NC(=O)[C@H](C)NC(=O)[C@@H]1CCCN1C(=O)[C@H](Cc1ccccc1)NC(=O)[C@H](CC(N)=O)NC(=O)C(C)(C)NC(=O)[C@H](CO)NC(=O)[C@H](CO)NC(=O)[C@H](Cc1c[nH]cn1)NC(=O)[C@@H](NC(=O)[C@H](CC(C)C)NC(=O)[C@H](Cc1ccccc1)NC(=O)[C@H](CC(N)=O)NC(=O)[C@H](C)NC(=O)[C@H](CC(C)C)NC(=O)[C@H](CCCNC(=N)N)NC(=O)[C@H](CCC(N)=O)NC(=O)[C@@H](NC(=O)[C@H](C)NC(=O)[C@@H]1CSSC[C@H](NC(=O)[C@@H](N)CCCCNC(=O)CC[C@H](NC(=O)CC[C@H](NC(=O)CCCCCCCCCCCCCCCCC(=O)O)C(=O)O)C(=O)O)C(=O)N[C@@H](CC(N)=O)C(=O)N[C@@H]([C@@H](C)O)C(=O)N[C@@H](C)C(=O)N[C@@H]([C@@H](C)O)C(=O)N1)[C@@H](C)O)C(C)C)C(=O)N[C@@H](CC(C)C)C(=O)N[C@@H](CO)C(=O)N1CCC[C@H]1C(=O)N[C@H](C(=O)N[C@@H](CC(N)=O)C(=O)N[C@H](C(=O)NCC(=O)N[C@@H](CO)C(=O)N[C@@H](CC(N)=O)C(=O)N[C@H](C(=O)N[C@@H](Cc1ccc(O)cc1)C(N)=O)[C@@H](C)O)C(C)C)[C@@H](C)O
B5: Peptide 12 (SEQ ID NO: 12) (peptide)
peptide: K([γGlu-C18 diacid])KCNTATCATQRLAEFLRHSSNN[αMeF]GPILPPTNVGSNTY-NH2
modifications: disulfide 3-8; N-terminus assumed
SMILES: CC[C@H](C)[C@H](NC(=O)[C@@H]1CCCN1C(=O)CNC(=O)[C@](C)(Cc1ccccc1)NC(=O)[C@H](CC(N)=O)NC(=O)[C@H](CC(N)=O)NC(=O)[C@H](CO)NC(=O)[C@H](CO)NC(=O)[C@H](Cc1c[nH]cn1)NC(=O)[C@H](CCCNC(=N)N)NC(=O)[C@H](CC(C)C)NC(=O)[C@H](Cc1ccccc1)NC(=O)[C@H](CCC(=O)O)NC(=O)[C@H](C)NC(=O)[C@H](CC(C)C)NC(=O)[C@H](CCCNC(=N)N)NC(=O)[C@H](CCC(N)=O)NC(=O)[C@@H](NC(=O)[C@H](C)NC(=O)[C@@H]1CSSC[C@H](NC(=O)[C@H](CCCCN)NC(=O)[C@@H](N)CCCCNC(=O)CC[C@H](NC(=O)CCCCCCCCCCCCCCCCC(=O)O)C(=O)O)C(=O)N[C@@H](CC(N)=O)C(=O)N[C@@H]([C@@H](C)O)C(=O)N[C@@H](C)C(=O)N[C@@H]([C@@H](C)O)C(=O)N1)[C@@H](C)O)C(=O)N[C@@H](CC(C)C)C(=O)N1CCC[C@H]1C(=O)N1CCC[C@H]1C(=O)N[C@H](C(=O)N[C@@H](CC(N)=O)C(=O)N[C@H](C(=O)NCC(=O)N[C@@H](CO)C(=O)N[C@@H](CC(N)=O)C(=O)N[C@H](C(=O)N[C@@H](Cc1ccc(O)cc1)C(N)=O)[C@@H](C)O)C(C)C)[C@@H](C)O
B6: Peptide 8 (SEQ ID NO: 8) (peptide)
peptide: K([γGlu-γGlu-C18 diacid])CNTATCATQRLANFLVHSS[Dab]NFPAILSPTNVGSNTY-NH2
modifications: disulfide 2-7; N-terminus assumed
SMILES: CC[C@H](C)[C@H](NC(=O)[C@H](C)NC(=O)[C@@H]1CCCN1C(=O)[C@H](Cc1ccccc1)NC(=O)[C@H](CC(N)=O)NC(=O)[C@H](CCN)NC(=O)[C@H](CO)NC(=O)[C@H](CO)NC(=O)[C@H](Cc1c[nH]cn1)NC(=O)[C@@H](NC(=O)[C@H](CC(C)C)NC(=O)[C@H](Cc1ccccc1)NC(=O)[C@H](CC(N)=O)NC(=O)[C@H](C)NC(=O)[C@H](CC(C)C)NC(=O)[C@H](CCCNC(=N)N)NC(=O)[C@H](CCC(N)=O)NC(=O)[C@@H](NC(=O)[C@H](C)NC(=O)[C@@H]1CSSC[C@H](NC(=O)[C@@H](N)CCCCNC(=O)CC[C@H](NC(=O)CC[C@H](NC(=O)CCCCCCCCCCCCCCCCC(=O)O)C(=O)O)C(=O)O)C(=O)N[C@@H](CC(N)=O)C(=O)N[C@@H]([C@@H](C)O)C(=O)N[C@@H](C)C(=O)N[C@@H]([C@@H](C)O)C(=O)N1)[C@@H](C)O)C(C)C)C(=O)N[C@@H](CC(C)C)C(=O)N[C@@H](CO)C(=O)N1CCC[C@H]1C(=O)N[C@H](C(=O)N[C@@H](CC(N)=O)C(=O)N[C@H](C(=O)NCC(=O)N[C@@H](CO)C(=O)N[C@@H](CC(N)=O)C(=O)N[C@H](C(=O)N[C@@H](Cc1ccc(O)cc1)C(N)=O)[C@@H](C)O)C(C)C)[C@@H](C)O
B7: Peptide 114 (SEQ ID NO: 114) (peptide)
peptide: K([γGlu-γGlu-C20 diacid])CNTATCATQRLANFLVHSSNNFGPILPPTNVGSRTY-NH2
modifications: disulfide 2-7; N-terminus assumed
SMILES: CC[C@H](C)[C@H](NC(=O)[C@@H]1CCCN1C(=O)CNC(=O)[C@H](Cc1ccccc1)NC(=O)[C@H](CC(N)=O)NC(=O)[C@H](CC(N)=O)NC(=O)[C@H](CO)NC(=O)[C@H](CO)NC(=O)[C@H](Cc1c[nH]cn1)NC(=O)[C@@H](NC(=O)[C@H](CC(C)C)NC(=O)[C@H](Cc1ccccc1)NC(=O)[C@H](CC(N)=O)NC(=O)[C@H](C)NC(=O)[C@H](CC(C)C)NC(=O)[C@H](CCCNC(=N)N)NC(=O)[C@H](CCC(N)=O)NC(=O)[C@@H](NC(=O)[C@H](C)NC(=O)[C@@H]1CSSC[C@H](NC(=O)[C@@H](N)CCCCNC(=O)CC[C@H](NC(=O)CC[C@H](NC(=O)CCCCCCCCCCCCCCCCCCC(=O)O)C(=O)O)C(=O)O)C(=O)N[C@@H](CC(N)=O)C(=O)N[C@@H]([C@@H](C)O)C(=O)N[C@@H](C)C(=O)N[C@@H]([C@@H](C)O)C(=O)N1)[C@@H](C)O)C(C)C)C(=O)N[C@@H](CC(C)C)C(=O)N1CCC[C@H]1C(=O)N1CCC[C@H]1C(=O)N[C@H](C(=O)N[C@@H](CC(N)=O)C(=O)N[C@H](C(=O)NCC(=O)N[C@@H](CO)C(=O)N[C@@H](CCCNC(=N)N)C(=O)N[C@H](C(=O)N[C@@H](Cc1ccc(O)cc1)C(N)=O)[C@@H](C)O)C(C)C)[C@@H](C)O

Each binder was assayed against T1, human amylin receptor (calcitonin …) (assay: cell-based or functional assay).

Row | Binder | EC50 (cAMP production) [nM] | Ratio (EC50 hCTR / EC50 hAMYR3)
1 | B1 | 1.17 | 16
2 | B2 | 0.861 | 2
3 | B3 | 0.183 | 15
4 | B4 | 0.32 | 42
5 | B5 | 0.158 | 8
6 | B6 | 0.375 | 54
7 | B7 | 1.32 | 12

Each binder was assayed against T2, human calcitonin receptor (assay: cell-based or functional assay).

Row | Binder | EC50 (cAMP production) [nM]
8 | B1 | 18.5
9 | B2 | 1.33
10 | B3 | 2.73
11 | B4 | 13.5
12 | B5 | 1.22
13 | B6 | 20.2
14 | B7 | 15.8

What follows are binders tested against T3, rat amylin receptor (calcitonin …) (assay: cell-based or functional assay).

Row | Binder | EC50 (cAMP production) [nM]
15 | B1 | 0.0326
16 | B2 | 0.016
17 | B3 | 0.0121
18 | B4 | 0.0178
19 | B5 | 0.005
20 | B6 | 0.0256
21 | B7 | 0.0122

The binders below were run against T4, rat calcitonin receptor (assay: cell-based or functional assay).

Row | Binder | EC50 (cAMP production) [nM]
22 | B1 | 10.4
23 | B2 | 0.259
24 | B3 | 2.78
25 | B4 | 9.72
26 | B5 | 0.107
27 | B6 | 19.9
28 | B7 | 4.87
